Assay results: KR20120135868A (dated 2012)
Positions count from the first letter of the chain named.

T1: 인간 FcεRI의 α 서브유니트(FcεRIα)의 가용성 단편 (human, UniProt P12319 26-205, limits assumed)
T1 construct: domain: 가용성 단편 (soluble fragment); also called soluble sFcεRI; sFcεRI
T1 sequence (looked up): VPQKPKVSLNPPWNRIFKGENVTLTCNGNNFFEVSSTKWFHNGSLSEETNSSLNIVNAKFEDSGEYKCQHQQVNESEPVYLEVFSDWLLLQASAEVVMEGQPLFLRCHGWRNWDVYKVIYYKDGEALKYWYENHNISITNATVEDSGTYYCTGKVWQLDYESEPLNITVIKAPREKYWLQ

B1: NPB 302 scFv (scFv, V domains shown)
VH: EVQLVESGAEVKKPGSSVKVSCKASGGTFSSYAISWVRQAPGQGLEWMGRIIPILGIANYAQKFQGRVTITADKSTSTAYMELSSLRSEDTAVYYCARVNPFGYYYAMDVWGQGTTVTVSS
VL: QSVLTQPPSASGTPGQRVTISCSGSTSNIGGNSVNWYQQLPGAAPKLLIYANIQRPSGVPDRFSGSKSGTSASLAISGLQSEDEADYYCASWDDSRNGYVFGTGTKVTVL
B2: NPB 312 scFv (scFv, V domains shown)
VH: EVQLVQSGAEVKKPGESLKISCEGSGYRFSSYWIAWVRQKPGKGLEWMGIIYPYDSDTKYGPSFGGQVTISADKSINTAYLEWSSLKASDTAMYYCARLALIRGSIIFDYWGLGTLVTVSS
VL: QSALTQPRSVSGSPGQSVTISCTGSRGDVGGYDFVSWYRQYPGEAPQLIIYDVSGRPSGVPDRFSGSKSGNTASLTISGLQPEDEADYYCSSYAGSEIYVFGTGTKVTVL
B3: NPB 313 scFv (scFv, V domains shown)
VH: B1 VH with E6Q
VL: DIQMTQSPSSVSASVGDRVTIPCRASQGISSWLAWYQQKPGKAPKLLIYAASNLQSGVPSRFSGSGSGTDFTLTISSLQPEDSATYYCQQTDSFPLTFGGGTKVEIK
B4: NPB 314 scFv (scFv, V domains shown)
VH: EVQLVQSGAEVKKPGESLKISCKGSGYTFTKYWIGWVRQMPGKGLEWMGIIYPGDSDTTYSPSFQGQVTISADKSISTAYLQWSSLKASDTAMYYCAKDNPFTGSFDIWGQGTMVTVSS
VL: QSALTQPASMSGFPGQSITISCTGTRDDVGNYDLVSWYQQQPAKAPKLLIYEDNKRPSGVSSRFSGSKSGSTASLTISGLQTEDEADYYCCSYAGDYTYVFGTGTKVTVL
B5: NPB 303 scFv (scFv, V domains shown)
VH: EVQLVQSGAEVKKSGESLKISCKGFGYTFTRNWIGWVRQMPGKGLEWMGIIYPGDSDTRYSPSFQGQVTISADKSISTAYLQWSSLKASDTAMYYCARDVGNGDYGLDVWGQGTTVTVSS
VL: QSALTQPASVSGSPGQSITISCTGTSSDIGGYDFVSWYQQHPGKAPKLIIYDVTRRPSEISNRFSASKSGNTASLTISGLQAEDEADYYCSSYTSSSTPYVFGTGTKVTVL
B6: NPB 304 scFv (scFv, V domains shown)
VH: EVQLLESGGGLVQPGGSLRLSCAASGLAFSDYYMSWVRLAPGKGLEWVSVISPGSGSKYYADSVKGRFTISRDNSKNTLYLQMNSLRAEDTAVYYCARYVGGMMMKRDFYYAMDVWGQGTLVTVSS
VL: QSVLTQPPSASGTPGQRVTISCSGSSSNIGSNAVNWYQQLPGTAPKLLIYYDSHRPSEVPDRFSGSKSGTSASLAISGLRSEDEADYYCGTWDSSLSGYVFGGGTKLTVL
B7: NPB 305 scFv (scFv, V domains shown)
VH: B6 VH
VL: QSVLTQPPSASGTPGQRVTISCTGSSSNIGNNDVSWYQQLPGTAPKLLIYSNNQRPSGVPDRFSGSKSGTSASLAISGLRSGDEADYYCGTWDYSLSGYVFGGGTKLTVL
B8: NPB 306 scFv (scFv, V domains shown)
VH: B2 VH
VL: QSVLTQPSSVSGAPGQRVTISCTGSSSNIGAGYDVHWYQHLPGTAPKLLIYGINIRPSGVPDRFSGSKSDTSASLAITALQAEDEADYYCQSYDSSLRSVVFGGGTKLTVL
B9: NPB 307 scFv (scFv, V domains shown)
VH: B4 VH with P14S, S25F, T28R, K31S, T59R, Q111L
VL: QSALTQPRSVSGSPGQSVTISCTGTSNDVGGYTYVSWYQQHPGKAPKLMIYDVSKRPSGVPDRFSGSKSGNTASLTISGLQAEDEADYYCSSYAGSYTWVFGGGTKLTVL
B10: NPB 308 scFv (scFv, V domains shown)
VH: B4 VH
VL: B9 VL
B11: NPB 309 scFv (scFv, V domains shown)
VH: B2 VH
VL: QSVLTQPSSVSGAPGQRVTISCTGSSSNIGADYDVHWYQLVSGAAPKLLIYGYTNRPSGVPDRFSGSKSGTSASLVIAGLQAEDEADYYCQSYDSSLSEVVFGGGTKLTVL

biological target: T1, 인간 FcεRI의 α 서브유니트(FcεRIα)의 가용성 단편; experiment: phage ELISA, scFv on phage, selected after panning on coated FcεRI

Binding result, binds:
B1, B2, B3, B4, B5, B6, B7, B8, B9, B10, B11
